In US20170115291A1, “Activating JAK Kinase Biomarkers Predictive of Anti-Immune Checkpoint Inhibitor Response” (Dana-Farber Cancer Institute, Inc., priority 2014, published 2017):

System: CD14+ myeloid cells
Assay: PBMC stimulation with IFNγ, PD-L1 on CD14+ myeloid cells by flow cytometry
Type: cell-based, human
Conditions: JAK3 V722I positive patients vs JAK3 P132T positive patient or blood donor controls, 250 ng/ml, 48 h
Method: Peripheral blood mononuclear cells (PBMCs) from patients identified as having JAK3 V722I or P132T variants (see sequencing section above) and healthy donors were isolated from fresh blood and platelet-depleted blood collars, respectively, by Ficoll method. PBMCs were plated at a density of 7.5×10^5 cells/ml in a 48-well plate and stimulated with 250 ng/ml IFNγ (PBL Interferon Source). No stimulation controls were set-up for each donor. At 48 h post-stimulation, cells were treated with 2 mM EDTA and collected for flow cytometry to assess for PD-L1 expression on CD14+ myeloid cells. Cells were stained with Live/Dead yellow viability dye (Invitrogen), as well as antibodies (BD Biosciences) against CD14 (M5E2), CD11b (ICRF44), and PD-L1 (MIH1) for 30 min at 4 C, and then fixed in BD Cytofix® buffer prior to analyses on BD LSR Fortessa SORT® HTS flow cytometer. Given the need to compare the difference between two means in relation to the variation in the data, a t-test was used to compare PD-L1 inducibility between V722I and non-V722I monocytes.

B1: IFN-γ: cytokine known to trigger PD-L1 in the tumor immune microenvironment (protein, UniProt P01579 24-161, looked up)
Interferon gamma: QDPYVKEAENLKKYFNAGHSDVADNGTLFLGILKNWKEESDRKIMQSQIVSFYFKLFKNFKDDQSIQKSVETIKEDMNVKFFNSNKKKRDDFEKLTNYSVTDLNVQRKAIHELIQVMAELSPAAKTGKRKRSQMLFRG
Expression of PD-L1 on CD14+ myeloid cells: modest but significantly increased
